In article PMC3678999, “A Structural Basis for IκB Kinase 2 Activation Via Oligomerization-Dependent Trans Auto-Phosphorylation” (PLoS Biology, 2013):
Several values for one entry are separate records, joined by “and”; a condition that tells them apart may be missing. Identical values can stand only once.

What was measured:
[1] = molecular target: T1, His-tagged full-length human IKK2 (human), O14920; experiment: AUC; sedimentation velocity, ~0.5 mg/ml, 30,000 rpm, 20°C, 15 h; Sedfit; settings: remark: other sources report otherwise
T1 chain: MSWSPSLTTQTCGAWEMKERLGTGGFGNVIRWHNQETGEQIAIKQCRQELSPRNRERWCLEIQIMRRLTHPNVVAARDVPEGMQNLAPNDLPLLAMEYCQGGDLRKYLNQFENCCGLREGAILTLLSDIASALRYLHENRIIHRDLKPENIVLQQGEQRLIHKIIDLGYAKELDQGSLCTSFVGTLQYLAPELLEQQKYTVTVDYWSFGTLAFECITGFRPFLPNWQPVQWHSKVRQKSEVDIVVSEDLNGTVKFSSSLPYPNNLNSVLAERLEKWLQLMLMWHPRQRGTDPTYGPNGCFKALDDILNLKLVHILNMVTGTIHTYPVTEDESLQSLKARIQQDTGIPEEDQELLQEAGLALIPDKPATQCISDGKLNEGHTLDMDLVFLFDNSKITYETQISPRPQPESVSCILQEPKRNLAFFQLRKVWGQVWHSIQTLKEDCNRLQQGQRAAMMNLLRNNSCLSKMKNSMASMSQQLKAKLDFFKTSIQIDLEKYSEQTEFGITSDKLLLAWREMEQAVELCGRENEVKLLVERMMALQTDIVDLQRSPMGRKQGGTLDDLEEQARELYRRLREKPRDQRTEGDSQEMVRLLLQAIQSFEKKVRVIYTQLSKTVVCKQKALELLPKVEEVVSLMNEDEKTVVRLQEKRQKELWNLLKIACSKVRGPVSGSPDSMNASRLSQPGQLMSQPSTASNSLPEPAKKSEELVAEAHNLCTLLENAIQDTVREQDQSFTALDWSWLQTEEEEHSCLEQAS

[2] = molecular target: T1, His-tagged full-length human IKK2 …; experiment: SEC-MALS; SEC-MALLS; protein pretreated with 1 mM ATP, concentrated as for crystallization; Zenix SEC-300 column, 20 mM Tris-Cl pH 8, 150 mM NaCl, 5% glycerol; settings: remark: other sources report otherwise
[3] = molecular target: the molecule itself; experiment: crystal structure; tetragonal crystal form, space group P4(1)22, six protomers in the asymmetric unit; protein mixed with inhibitor MLN120B 1:2; sodium malonate pH 6.5, 18°C
[4] = molecular target: the molecule itself; experiment: crystal structure; hexagonal crystal form, data to 7 Å; molecular replacement with the hIKK2EE(11–669) model and rigid body refinement, called a probable solution; protein mixed with inhibitor MLN120B

B1: His-tagged full-length human IKK2, O14920 1-756 (enzyme)
chain: MSWSPSLTTQTCGAWEMKERLGTGGFGNVIRWHNQETGEQIAIKQCRQELSPRNRERWCLEIQIMRRLTHPNVVAARDVPEGMQNLAPNDLPLLAMEYCQGGDLRKYLNQFENCCGLREGAILTLLSDIASALRYLHENRIIHRDLKPENIVLQQGEQRLIHKIIDLGYAKELDQGSLCTSFVGTLQYLAPELLEQQKYTVTVDYWSFGTLAFECITGFRPFLPNWQPVQWHSKVRQKSEVDIVVSEDLNGTVKFSSSLPYPNNLNSVLAERLEKWLQLMLMWHPRQRGTDPTYGPNGCFKALDDILNLKLVHILNMVTGTIHTYPVTEDESLQSLKARIQQDTGIPEEDQELLQEAGLALIPDKPATQCISDGKLNEGHTLDMDLVFLFDNSKITYETQISPRPQPESVSCILQEPKRNLAFFQLRKVWGQVWHSIQTLKEDCNRLQQGQRAAMMNLLRNNSCLSKMKNSMASMSQQLKAKLDFFKTSIQIDLEKYSEQTEFGITSDKLLLAWREMEQAVELCGRENEVKLLVERMMALQTDIVDLQRSPMGRKQGGTLDDLEEQARELYRRLREKPRDQRTEGDSQEMVRLLLQAIQSFEKKVRVIYTQLSKTVVCKQKALELLPKVEEVVSLMNEDEKTVVRLQEKRQKELWNLLKIACSKVRGPVSGSPDSMNASRLSQPGQLMSQPSTASNSLPEPAKKSEELVAEAHNLCTLLENAIQDTVREQDQSFTALDWSWLQTEEEEHSCLEQAS
What does the source list for B1?
stoichiometry N [1]: 4 and 6 and 8; stoichiometry N [2]: 4

B2: human IKK2 (amino acids 11–669), constitutively active S177E/S181E (domain or fragment, UniProt O14920 11-669, looked up)
chain: TCGAWEMKERLGTGGFGNVIRWHNQETGEQIAIKQCRQELSPRNRERWCLEIQIMRRLTHPNVVAARDVPEGMQNLAPNDLPLLAMEYCQGGDLRKYLNQFENCCGLREGAILTLLSDIASALRYLHENRIIHRDLKPENIVLQQGEQRLIHKIIDLGYAKELDQGELCTEFVGTLQYLAPELLEQQKYTVTVDYWSFGTLAFECITGFRPFLPNWQPVQWHSKVRQKSEVDIVVSEDLNGTVKFSSSLPYPNNLNSVLAERLEKWLQLMLMWHPRQRGTDPTYGPNGCFKALDDILNLKLVHILNMVTGTIHTYPVTEDESLQSLKARIQQDTGIPEEDQELLQEAGLALIPDKPATQCISDGKLNEGHTLDMDLVFLFDNSKITYETQISPRPQPESVSCILQEPKRNLAFFQLRKVWGQVWHSIQTLKEDCNRLQQGQRAAMMNLLRNNSCLSKMKNSMASMSQQLKAKLDFFKTSIQIDLEKYSEQTEFGITSDKLLLAWREMEQAVELCGRENEVKLLVERMMALQTDIVDLQRSPMGRKQGGTLDDLEEQARELYRRLREKPRDQRTEGDSQEMVRLLLQAIQSFEKKVRVIYTQLSKTVVCKQKALELLPKVEEVVSLMNEDEKTVVRLQEKRQKELWNLLKIACSKVRGPV
notes: human IκB kinase 2 (IKK2/IKKβ), amino acids 11–669, with S177E/S181E; Cloned in pFastBacHTb (N-terminal hexa-histidine tag, TEV site); Incubated with ATP/MgCl2 before the size exclusion column; also called IKK2(11–669)EE; hIKK2EE(11–669); source: Sf9 (baculovirus), purified (Ni-NTA, TEV, Superdex200); not shown: His6, N-terminal, cleaved
Which “stoichiometry N” value [3] does the source give for B2 here?
Its value is 2 and 4.

B3: human IKK2 (amino acids 1–700), constitutively active S177E/S181E (domain or fragment, UniProt O14920 1-700, looked up)
chain: MSWSPSLTTQTCGAWEMKERLGTGGFGNVIRWHNQETGEQIAIKQCRQELSPRNRERWCLEIQIMRRLTHPNVVAARDVPEGMQNLAPNDLPLLAMEYCQGGDLRKYLNQFENCCGLREGAILTLLSDIASALRYLHENRIIHRDLKPENIVLQQGEQRLIHKIIDLGYAKELDQGELCTEFVGTLQYLAPELLEQQKYTVTVDYWSFGTLAFECITGFRPFLPNWQPVQWHSKVRQKSEVDIVVSEDLNGTVKFSSSLPYPNNLNSVLAERLEKWLQLMLMWHPRQRGTDPTYGPNGCFKALDDILNLKLVHILNMVTGTIHTYPVTEDESLQSLKARIQQDTGIPEEDQELLQEAGLALIPDKPATQCISDGKLNEGHTLDMDLVFLFDNSKITYETQISPRPQPESVSCILQEPKRNLAFFQLRKVWGQVWHSIQTLKEDCNRLQQGQRAAMMNLLRNNSCLSKMKNSMASMSQQLKAKLDFFKTSIQIDLEKYSEQTEFGITSDKLLLAWREMEQAVELCGRENEVKLLVERMMALQTDIVDLQRSPMGRKQGGTLDDLEEQARELYRRLREKPRDQRTEGDSQEMVRLLLQAIQSFEKKVRVIYTQLSKTVVCKQKALELLPKVEEVVSLMNEDEKTVVRLQEKRQKELWNLLKIACSKVRGPVSGSPDSMNASRLSQPGQLMSQPSTASNSLPE
notes: human IκB kinase 2 (IKK2/IKKβ), amino acids 1–700 (amino acid 701 mutated to a stop codon), with S177E/S181E; Hexagonal crystal form, data to 7 Å; no PDB entry is named for it; also called hIKK2EE 1–700; hIKK2EE(1–700); source: Sf9 (baculovirus), purified (Ni-NTA, TEV, Superdex200); not shown: His6, N-terminal, cleaved
With B3 as the binder, how does the “stoichiometry N” value [4] read?
Its value is 2.
